{"source": "patent US20240209399A1", "target": "TnsC-BP-NLS-VP64 (plasmid pSL2783, p6A_hCO_Vch_TnsC_BP-NLS-VP64) (Vibrio cholerae)", "assay": "cell-based or functional assay"}
{"substance": "TnsABf (plasmid pSL2669, pcDNA3.1_hCO_Vch_TnsA_BP-NLS_TnsB)", "values": [{"measurement": "level of transcriptional activation (mCherry MFI relative to the non-targeting control, HEK293T reporter assay)", "value": 2, "unit": "fold"}]}
